Reference: the supplement of paper PMC11246515
± gives the standard deviation of the averaged measurements.

Test: total protein half-life in vivo (active degradation + dilution); higher = more stable protein
[1] = E. coli NCM3722 delta-hslV, growth: N-lim chemostat, doubling time 6 h
[2] = E. coli NCM3722 delta-lon, growth: N-lim chemostat, doubling time 6 h
[3] = E. coli NCM3722 delta-smpB, growth: N-lim chemostat, doubling time 6 h
[4] = wild type E. coli NCM3722, growth: C-lim chemostat, doubling time 3 h
[5] = wild type E. coli NCM3722, growth: C-lim chemostat, doubling time 6 h
[6] = wild type E. coli NCM3722, growth: C-lim chemostat, doubling time 12 h
[7] = wild type E. coli NCM3722, growth: N-lim chemostat, doubling time 12 h
[8] = wild type E. coli NCM3722, growth: P-lim chemostat, doubling time 6 h
[9] = wild type E. coli NCM3722, growth: P-lim chemostat, doubling time 12 h
[10] = E. coli NCM3722 delta-clpP delta-lon delta-hslV, growth: N-lim chemostat, doubling time 6 h
[11] = E. coli NCM3722 delta-clpP, growth: N-lim chemostat, doubling time 6 h
[12] = wild type E. coli NCM3722, growth: N-lim chemostat, doubling time 6 h

## MQTQLTEEMRQNARALEADSILRACVHCGFCTATCPTYQLLGDELDGPRGRIYLIKQVLEGNEVTLKTQEHLDRCLTCRNCETTCPSGVRYHNLLDIGRDIVEQKVKRPLPERILREGLRQVVPRPAVFRALTQVGLVLRPFLPEQVRAKLPAETVKAKPRPPLRHKRRVLMLEGCAQPTLSPNTNAATARVLDRLGISVMPANEAGCCGAVDYHLNAQEKGLARARNNIDAWWPAIEAGAEAILQTASGCGAFVKEYGQMLKNDALYADKARQVSELAVDLVELLREEPLEKLAIRGDKKLAFHCPCTLQHAQKLNGEVEKVLLRLGFTLTDVPDSHLCCGSAGTYALTHPDLARQLRDNKMNALESGKPEMIVTANIGCQTHLASAGRTSVRHWIEIVEQALEKE
[1]
  total protein half-life in vivo: 1.54 h
[2]
  total protein half-life in vivo: 2.63 ± 0.16 h
[3]
  total protein half-life in vivo: 1.29 ± 0.16 h
[4]
  total protein half-life in vivo: 1.33 ± 0.28 h
[5]
  total protein half-life in vivo: 2.42 ± 0.12 h
[6]
  total protein half-life in vivo: 4.17 ± 0.18 h
[7]
  total protein half-life in vivo: 2.2136 ± 0.00075 h
[8]
  total protein half-life in vivo: 2.14 h
[9]
  total protein half-life in vivo: 4.65 ± 0.33 h

## MQTTQQNAPLKRTMKTRHLIMLSLGGVIGTGLFFNTGYIISTTGAAGTLLAYLIGALVVWLVMQCLGELSVAMPETGAFHVYAARYLGPATGYTVAWLYWLTWTVALGSSFTAAGFCMQYWFPQVPVWVWCVVFCAIIFGLNVISTRFFAEGEFWFSLVKVVTIIAFIILGGAAIFGFIPMQDGSPAPGLSNITAEGWFPHGGLPILMTMVAVNFAFSGTELIGIAAGETENPRKVIPVAIRTTIARLIIFFIGTVFVLAALIPMQQVGVEKSPFVLVFEKVGIPYAADIFNFVILTAILSAANSGLYASGRMLWSLSNERTLPACFARVTKNGVPLTALSVSMLGGVLALFSSVVAPDTVFVALSAISGFAVVAVWLSICASHFVFRRRHLQQGKALSELHYRAPWYPLVPVLGFVLCLVACVGLAFDPAQRIALWCGLPFVALCYGAYFLTQPRNAKQEPEHVAE
[10]
  total protein half-life in vivo: 3.09 ± 0.25 h
[11]
  total protein half-life in vivo: 1.78 h
[1]
  total protein half-life in vivo: 3.13 h
[3]
  total protein half-life in vivo: 2.51 ± 0.28 h
[4]
  total protein half-life in vivo: 3.05 ± 0.71 h
[5]
  total protein half-life in vivo: 4.13 ± 0.25 h
[6]
  total protein half-life in vivo: 7.02 ± 0.5 h
[12]
  total protein half-life in vivo: 3.79 h
[8]
  total protein half-life in vivo: 3.63 ± 0.43 h
[9]
  total protein half-life in vivo: 7.23 h

## MQTVIFGRSGCPYCVRAKDLAEKLSNERDDFQYQYVDIRAEGITKEDLQQKAGKPVETVPQIFVDQQHIGGYTDFAAWVKENLDA
[10]
  total protein half-life in vivo: 5.87 h
[11]
  total protein half-life in vivo: 3.94 h
[1]
  total protein half-life in vivo: 3.72 h
[2]
  total protein half-life in vivo: 4.75 ± 0.46 h
[3]
  total protein half-life in vivo: 3.33 h
[4]
  total protein half-life in vivo: 2.14 h
[5]
  total protein half-life in vivo: 4.99 h
[6]
  total protein half-life in vivo: 6.22 h
[12]
  total protein half-life in vivo: 3.39 h
[7]
  total protein half-life in vivo: 5.49 h
[8]
  total protein half-life in vivo: 4.16 h
[9]
  total protein half-life in vivo: 7.26 ± 0.75 h

## MQVDLLGSAQSAHALHLFHQHSPLVHCMTNDVVQTFTANTLLALGASPAMVIETEEASQFAAIASALLINVGTLTQPRAQAMRAAVEQAKSSQTPWTLDPVAVGALDYRRHFCHELLSFKPAAIRGNASEIMALAGIANGGRGVDTTDAAANAIPAAQTLARETGAIVVVTGEMDYVTDGHRIIGIHGGDPLMTKVVGTGCALSAVVAACCALPGDTLENVASACHWMKQAGERAVARSEGPGSFVPHFLDALWQLTQEVQA
[10]
  total protein half-life in vivo: 4.08 ± 0.34 h
[11]
  total protein half-life in vivo: 3.41 ± 0.17 h
[1]
  total protein half-life in vivo: 3.27 ± 0.13 h
[2]
  total protein half-life in vivo: 3.94 h
[3]
  total protein half-life in vivo: 3.42 ± 0.044 h
[4]
  total protein half-life in vivo: 3.01 ± 0.68 h
[5]
  total protein half-life in vivo: 4.89 ± 1.2 h
[6]
  total protein half-life in vivo: 8.48 ± 1 h
[12]
  total protein half-life in vivo: 3.4 ± 0.41 h
[7]
  total protein half-life in vivo: 5.17 ± 0.24 h
[8]
  total protein half-life in vivo: 5.64 ± 0.14 h
[9]
  total protein half-life in vivo: 10.3 ± 0.67 h

## MQVFIMRHGDAALDAASDSVRPLTTNGCDESRLMANWLKGQKVEIERVLVSPFLRAEQTLEEVGDCLNLPSSAEVLPELTPCGDVGLVSAYLQALTNEGVASVLVISHLPLVGYLVAELCPGETPPMFTTSAIASVTLDESGNGTFNWQMSPCNLKMAKAI
[10]
  total protein half-life in vivo: 4.59 ± 0.56 h
[11]
  total protein half-life in vivo: 4.209 ± 0.026 h
[1]
  total protein half-life in vivo: 0.943 ± 0.06 h
[2]
  total protein half-life in vivo: 0.853 ± 0.11 h
[3]
  total protein half-life in vivo: 1.03 ± 0.01 h
[4]
  total protein half-life in vivo: 1.06 ± 0.013 h
[5]
  total protein half-life in vivo: 1.35 ± 0.12 h
[6]
  total protein half-life in vivo: 1.57 ± 0.41 h
[12]
  total protein half-life in vivo: 1.13 ± 0.12 h
[7]
  total protein half-life in vivo: 1.5 ± 0.33 h
[8]
  total protein half-life in vivo: 1.25 ± 0.38 h
[9]
  total protein half-life in vivo: 2.5 ± 0.88 h

## MQYPINEMFQTLQGEGYFTGVPAIFIRLQGCPVGCAWCDTKHTWEKLEDREVSLFSILAKTKESDKWGAASSEDLLAVIGRQGYTARHVVITGGEPCIHDLLPLTDLLEKNGFSCQIETSGTHEVRCTPNTWVTVSPKLNMRGGYEVLSQALERANEIKHPVGRVRDIEALDELLATLTDDKPRVIALQPISQKDDATRLCIETCIARNWRLSMQTHKYLNIA
[10]
  total protein half-life in vivo: 4.61 ± 0.46 h
[11]
  total protein half-life in vivo: 3.94 h
[1]
  total protein half-life in vivo: 3.81 ± 0.46 h
[2]
  total protein half-life in vivo: 4.5 ± 0.086 h
[3]
  total protein half-life in vivo: 3.79 ± 0.57 h
[4]
  total protein half-life in vivo: 2.309 ± 0.014 h
[5]
  total protein half-life in vivo: 4.33 ± 0.17 h
[6]
  total protein half-life in vivo: 6.66 ± 0.86 h
[12]
  total protein half-life in vivo: 3.7 ± 0.29 h
[7]
  total protein half-life in vivo: 6.06 ± 0.13 h
[8]
  total protein half-life in vivo: 4.61 ± 0.56 h
[9]
  total protein half-life in vivo: 7.47 ± 0.8 h
